Measured values taken from article PMC11884936, “MDC1 mediates Pellino recruitment to sites of DNA double-strand breaks” (Life Science Alliance, 2025).
Values belong to the substance of their own block, whether it stands above or below them.

Assays:
MDC1 = MDC1 (UniProt Q14676); experiment: biotin-peptide pull-down, Western blot; conditions: reference: unphosphorylated S139 peptide; sites S139
[1] = biological target: Pellino 2 (PELI2) FHA domain, 1-275 (UniProt Q9HAT8); experiment: biotin-peptide pull-down, stained gel
RNF8 [2] = biological target: RNF8 (UniProt O76064); experiment: biotin-peptide pull-down, LC-MS/MS; conditions: reference: unphosphorylated T752 peptide; sites T752
Pellino 2 (PELI2) = Pellino 2 (PELI2) (UniProt Q9HAT8); experiment: biotin-peptide pull-down, LC-MS/MS; conditions: reference: unphosphorylated T752 peptide; sites T752
Pellino 1 (PELI1) = Pellino 1 (PELI1) (UniProt Q96FA3); experiment: biotin-peptide pull-down, LC-MS/MS; conditions: reference: unphosphorylated T752 peptide; sites T752
RNF8 [3] = biological target: RNF8 (UniProt O76064); experiment: biotin-peptide pull-down, Western blot
[4] = reference: unphosphorylated T752 peptide, sites T752
[5] = reference: unphosphorylated T719 peptide, sites T719

Substance: MDC1 (from UniProt Q14676) pT699 peptide
- binding against the reference (RNF8 [3]; reference: unphosphorylated T699 peptide, sites T699): stronger

Substance: MDC1 (from UniProt Q14676) pT765 peptide
- binding against the reference (RNF8 [3]; reference: unphosphorylated T765 peptide, sites T765): stronger

Results, then the substance that gave them:

- binding against the reference (MDC1): stronger
Substance: H2AX (from UniProt P16104) pS139 peptide

- binding against the reference [1, 4]: gained
- binding against the reference (RNF8 [2]): gained
- binding against the reference (Pellino 2 (PELI2)): gained
- binding against the reference (Pellino 1 (PELI1)): gained
- binding against the reference (RNF8 [3]; [4]): stronger
Substance: MDC1 743-757 (from UniProt Q14676) pT752 peptide

- binding against the reference [1, 5]: gained
- binding against the reference (RNF8 [3]; [5]): stronger
Substance: MDC1 (from UniProt Q14676) pT719 peptide
